In patent US20240368565A1, “COMPLEMENTATION-BASED TAGS AND REPORTERS FOR DUAL-MODALITY LABELING” (Promega Corporation, priority 2023, published 2024) one finds Koff, Kon and Kd data, which are given here for 14 compounds.

Peptide text beside a SMILES is read from it. * marks the point of attachment. Biotin = O=C1N[C@H]2[C@H](CS[C@H]2CCCCC(=O)*)N1

One may read the Kd as the constant that tells how readily two partners part at equilibrium.

What all share (test): biochemical
Common to all, as to type: binding

For assay [1], the target named is HaloTag[22-297](M2F + D53G + K140E)-12xGly/Ser-LgBiT-3xGly/Ser-6xHis (Rhodococcus rhodochrous, UniProt P0A3G2, A155T/A167V/A172T/A224E/C128F/C176G/D73G/D78G/E257K/H272N/K175M/K195N/L47V/L88M/N227D/S58T/T264A/Y273L/Y87F).
The target in assay [2] is HaloTag[22-297](M2F + K140E)-12xGly/Ser-LgBiT-3xGly/Ser-6xHis (Rhodococcus rhodochrous, UniProt P0A3G2, A155T/A167V/A172T/A224E/C128F/C176G/D78G/E257K/H272N/K175M/K195N/L47V/L88M/N227D/S58T/T264A/Y273L/Y87F). The following applies: biotinylated peptide on streptavidin probes, PBST, 25° C.
Assay [3] has as its target LgBiT-6xHis (Oplophorus gracilirostris, UniProt Q9GV45, A31E/A60N/A81I/D135N/F58L/F95D/G42A/G62A/G78A/G94A/G98A/H120P/I103V/I117V/I134L/K70R/L176M/L54V/L73R/L99Q/M102E/N171T/P142E/Q151K/Q38E/Q45L/V71I/Y165I).
Where [4] appears, read: biotinylated peptide on streptavidin probes, PBST, 25° C.

In the case of ERGTGFPFDPHYVEVLGGGSGVSVSGWRLFRRIS, in assay [1] (setting [4]), the Koff entry is on record as “NA (dissociation that is too slow for the instrument to measure (limit 10^6 l/s))” and the Kon is 71400 M⁻¹ s⁻¹.
With “ERGTGFPFDPHYVEVLRGGSGVSVSGWRLFKKIS [HaloTag[3-19](I2R + G17R)-4xGS-VSHiBiT]”, in assay [2], the Koff result is recorded as “NA (dissociation that is too slow for the instrument to measure (limit 10^6 l/s))” and the Kon was determined as 93300 M⁻¹ s⁻¹.
In assay [3], `CC[C@H](C)[C@H](NC(=O)[C@H](CCCCN)NC(=O)[C@H](CCCCN)NC(=O)[C@H](Cc1ccccc1)NC(=O)[C@H](CC(C)C)NC(=O)[C@H](CCCNC(=N)N)NC(=O)[C@H](Cc1c[nH]c2ccccc12)NC(=O)CNC(=O)[C@H](CO)NC(=O)[C@@H](NC(=O)[C@H](CO)NC(=O)[C@@H](NC(=O)CNC(=O)[C@H](CO)NC(=O)CNC(=O)CNC(=O)CNC(=O)[C@H](CC(C)C)NC(=O)[C@@H](NC(=O)[C@H](CCC(=O)O)NC(=O)[C@@H](NC(=O)[C@H](Cc1ccc(O)cc1)NC(=O)[C@H](Cc1c[nH]cn1)NC(=O)[C@@H]1CCCN1C(=O)[C@H](CC(=O)O)NC(=O)[C@H](Cc1ccccc1)NC(=O)[C@@H]1CCCN1C(=O)[C@H](Cc1ccccc1)NC(=O)[C@H](CCCNC(=N)N)NC(=O)[C@@H](NC(=O)CNC(=O)[C@H](CCCNC(=N)N)NC(=O)[C@H](CCC(=O)O)NC(=O)CCCC[C@@H]1SC[C@@H]2NC(=O)N[C@@H]21)[C@@H](C)O)C(C)C)C(C)C)C(C)C)C(C)C)C(=O)N[C@@H](CO)C(=O)O` [HaloTag[3-19](I2R + G5R)-4xGS-VSHiBiT] (Biotin-ERGTRFPFDPHYVEVLGGGSGVSVSGWRLFKKIS-OH) returned a dissociation constant Kd of 0.11 nM.
Regarding `CC[C@H](C)[C@H](NC(=O)[C@H](CCCCN)NC(=O)[C@H](CCCCN)NC(=O)[C@H](Cc1ccccc1)NC(=O)[C@H](CC(C)C)NC(=O)[C@H](CCCNC(=N)N)NC(=O)[C@H](Cc1c[nH]c2ccccc12)NC(=O)CNC(=O)[C@H](CO)NC(=O)[C@@H](NC(=O)CNC(=O)[C@H](CO)NC(=O)CNC(=O)CNC(=O)CNC(=O)[C@H](CC(C)C)NC(=O)[C@@H](NC(=O)[C@H](CCC(=O)O)NC(=O)[C@@H](NC(=O)[C@H](Cc1ccc(O)cc1)NC(=O)[C@H](Cc1c[nH]cn1)NC(=O)[C@@H]1CCCN1C(=O)[C@H](CC(=O)O)NC(=O)[C@H](Cc1ccccc1)NC(=O)[C@@H]1CCCN1C(=O)[C@H](Cc1ccccc1)NC(=O)CNC(=O)[C@@H](NC(=O)CNC(=O)[C@H](CCCNC(=N)N)NC(=O)[C@H](CCC(=O)O)NC(=O)CCCC[C@@H]1SC[C@@H]2NC(=O)N[C@@H]21)[C@@H](C)O)C(C)C)C(C)C)C(C)C)C(=O)N[C@@H](CO)C(=O)O` [HaloTag[3-19](I2R)-4xGly/Ser-HiBiT] (Biotin-ERGTGFPFDPHYVEVLGGGSGVSGWRLFKKIS-OH), in assay [1], the Kd was found to be 0.323 nM.
For “EIKTGFPFDPHYVKVLGGGSGVSVSGWRLFKKIS [HaloTag[3-19](G3K + E14K)-4xGS-VSHiBiT]”, in assay [2], the Koff result is recorded as “NA (dissociation that is too slow for the instrument to measure (limit 10^6 l/s))” and the Kon turned out to be 128000 M⁻¹ s⁻¹.
As for `CC[C@H](C)[C@H](NC(=O)[C@H](CCCCN)NC(=O)[C@H](CCCCN)NC(=O)[C@H](Cc1ccccc1)NC(=O)[C@H](CC(C)C)NC(=O)[C@H](CCCNC(=N)N)NC(=O)[C@H](Cc1c[nH]c2ccccc12)NC(=O)CNC(=O)[C@H](CO)NC(=O)[C@@H](NC(=O)[C@H](CO)NC(=O)[C@@H](NC(=O)CNC(=O)[C@H](CO)NC(=O)CNC(=O)CNC(=O)CNC(=O)[C@H](CC(C)C)NC(=O)[C@@H](NC(=O)[C@H](CCC(=O)O)NC(=O)[C@@H](NC(=O)[C@H](Cc1ccc(O)cc1)NC(=O)[C@H](Cc1c[nH]cn1)NC(=O)[C@@H]1CCCN1C(=O)[C@H](CC(=O)O)NC(=O)[C@H](Cc1ccccc1)NC(=O)[C@@H]1CCCN1C(=O)[C@H](Cc1ccccc1)NC(=O)CNC(=O)[C@@H](NC(=O)[C@H](CCCCN)NC(=O)[C@H](CCCNC(=N)N)NC(=O)[C@H](CCC(=O)O)NC(=O)CCCC[C@@H]1SC[C@@H]2NC(=O)N[C@@H]21)[C@@H](C)O)C(C)C)C(C)C)C(C)C)C(C)C)C(=O)N[C@@H](CO)C(=O)O` [HaloTag[3-19](I2R + G3K)-4xGS-VSHiBiT] (Biotin-ERKTGFPFDPHYVEVLGGGSGVSVSGWRLFKKIS-OH), the Kd in assay [3] is 0.323 nM.
As for “EIKTGFPFDPHYVEVRGGGSGVSVSGWRLFKKIS [HaloTag[3-19](G3K + L16R)-4xGS-VSHiBiT]”, in assay [2], the Koff entry is on record as “NA (dissociation that is too slow for the instrument to measure (limit 10^6 l/s))” and the Kon was 97100 M⁻¹ s⁻¹.
Take `CC[C@H](C)[C@H](NC(=O)[C@H](CCC(=O)O)NC(=O)CCCC[C@@H]1SC[C@@H]2NC(=O)N[C@@H]21)C(=O)NCC(=O)N[C@H](C(=O)NCC(=O)N[C@@H](Cc1ccccc1)C(=O)N1CCC[C@H]1C(=O)N[C@@H](Cc1ccccc1)C(=O)N[C@@H](CCCNC(=N)N)C(=O)N1CCC[C@H]1C(=O)N[C@@H](Cc1c[nH]cn1)C(=O)N[C@@H](Cc1ccc(O)cc1)C(=O)N[C@H](C(=O)N[C@@H](CCC(=O)O)C(=O)N[C@H](C(=O)N[C@@H](CC(C)C)C(=O)NCC(=O)NCC(=O)NCC(=O)N[C@@H](CO)C(=O)NCC(=O)N[C@H](C(=O)N[C@@H](CO)C(=O)N[C@H](C(=O)N[C@@H](CO)C(=O)NCC(=O)N[C@@H](Cc1c[nH]c2ccccc12)C(=O)N[C@@H](CCCNC(=N)N)C(=O)N[C@@H](CC(C)C)C(=O)N[C@@H](Cc1ccccc1)C(=O)N[C@@H](CCCCN)C(=O)N[C@@H](CCCCN)C(=O)N[C@H](C(=O)N[C@@H](CO)C(=O)O)[C@@H](C)CC)C(C)C)C(C)C)C(C)C)C(C)C)[C@@H](C)O` [HaloTag[3-19](D9R)-4xGly/Ser-VSHiBiT] (Biotin-EIGTGFPFRPHYVEVLGGGSGVSVSGWRLFKKIS-OH): the Kd in assay [2] stood at 0.126 nM.
As to “EIGTGFPFDPHYVEVRGGGSGVSVSGWRLFKKIS [HaloTag[3-19](L16R)-4xGly/Ser-VSHiBiT]”, in assay [2], the Koff result is reported as “NA (dissociation that is too slow for the instrument to measure (limit 10^6 l/s))” and the Kon was found to be 77900 M⁻¹ s⁻¹.
The corresponding values for “ERGTGFPFRPHYVEVLGGGSGVSVSGWRLFKKIS [HaloTag[3-19](I2R + D9R)-4xGS-VSHiBiT]” are “NA (dissociation that is too slow for the instrument to measure (limit 10^6 l/s))” and 128000 M⁻¹ s⁻¹.
On to `CC[C@H](C)[C@H](NC(=O)[C@H](CCCCN)NC(=O)[C@H](CCCCN)NC(=O)[C@H](Cc1ccccc1)NC(=O)[C@H](CC(C)C)NC(=O)[C@H](CCCNC(=N)N)NC(=O)[C@H](Cc1c[nH]c2ccccc12)NC(=O)CNC(=O)[C@H](CO)NC(=O)[C@@H](NC(=O)[C@H](CO)NC(=O)[C@@H](NC(=O)CNC(=O)[C@H](CC(C)C)NC(=O)[C@@H](NC(=O)[C@H](CCC(=O)O)NC(=O)[C@@H](NC(=O)[C@H](Cc1ccc(O)cc1)NC(=O)[C@H](Cc1c[nH]cn1)NC(=O)[C@@H]1CCCN1C(=O)[C@H](CC(=O)O)NC(=O)[C@H](Cc1ccccc1)NC(=O)[C@@H]1CCCN1C(=O)[C@H](Cc1ccccc1)NC(=O)CNC(=O)[C@@H](NC(=O)CNC(=O)[C@H](CCCNC(=N)N)NC(=O)[C@H](CCC(=O)O)NC(=O)CCCC[C@@H]1SC[C@@H]2NC(=O)N[C@@H]21)[C@@H](C)O)C(C)C)C(C)C)C(C)C)C(C)C)C(=O)N[C@@H](CO)C(=O)O` [HaloTag[3-19](I2R)-VSHiBiT] (Biotin-ERGTGFPFDPHYVEVLGVSVSGWRLFKKIS-OH), for which the dissociation constant (Kd) in assay [1] was determined as 0.713 nM.
In the case of `CC[C@H](C)[C@H](NC(=O)[C@H](CCC(=O)O)NC(=O)CCCC[C@@H]1SC[C@@H]2NC(=O)N[C@@H]21)C(=O)NCC(=O)N[C@H](C(=O)NCC(=O)N[C@@H](Cc1ccccc1)C(=O)N1CCC[C@H]1C(=O)N[C@@H](Cc1ccccc1)C(=O)N[C@@H](CCCNC(=N)N)C(=O)N1CCC[C@H]1C(=O)N[C@@H](Cc1c[nH]cn1)C(=O)N[C@@H](Cc1ccc(O)cc1)C(=O)N[C@H](C(=O)N[C@@H](CCCCN)C(=O)N[C@H](C(=O)N[C@@H](CC(C)C)C(=O)NCC(=O)NCC(=O)NCC(=O)N[C@@H](CO)C(=O)NCC(=O)N[C@H](C(=O)N[C@@H](CO)C(=O)N[C@H](C(=O)N[C@@H](CO)C(=O)NCC(=O)N[C@@H](Cc1c[nH]c2ccccc12)C(=O)N[C@@H](CCCNC(=N)N)C(=O)N[C@@H](CC(C)C)C(=O)N[C@@H](Cc1ccccc1)C(=O)N[C@@H](CCCCN)C(=O)N[C@@H](CCCCN)C(=O)N[C@H](C(=O)N[C@@H](CO)C(=O)O)[C@@H](C)CC)C(C)C)C(C)C)C(C)C)C(C)C)[C@@H](C)O` [HaloTag[3-19](D9R + E14K)-4xGS-VSHiBiT] (Biotin-EIGTGFPFRPHYVKVLGGGSGVSVSGWRLFKKIS-OH), the Kd in assay [2] amounted to 0.111 nM.
With “EIGTGFPFRPHYVEVRGGGSGVSVSGWRLFKKIS [HaloTag[3-19](D9R + L16R)-4xGS-VSHiBiT]”, the Koff entry in assay [2] and in assay [3] (setting [4]) was “NA (dissociation that is too slow for the instrument to measure (limit 10^6 l/s))” each time. The results for the Kon in assay [2] and in assay [3] (setting [4]) were 134000 M⁻¹ s⁻¹ and 64800 M⁻¹ s⁻¹, respectively.
For “EIGTGFPFDPHYVKVLGGGSGVSVSGWRLFKKIS [HaloTag[3-19](E14K)-4xGly/Ser-VSHiBiT]”, in assay [2], the Koff result is recorded as “NA (dissociation that is too slow for the instrument to measure (limit 10^6 l/s))” and the Kon stood at 108000 M⁻¹ s⁻¹.
